Experimental data reported in paper PMC4783044, “Stoichiometry and Change of the mRNA Closed-Loop Factors as Translating Ribosomes Transit from Initiation to Elongation” (PLoS ONE, 2016).
Read-outs that look alike come from different tables or passages of the source.

What was measured:
Flag-PAB1 [1] = target: T1, Flag-PAB1 (yeast, UniProt P04147 1-577); assay: co-IP + AUC; one-step anti-Flag bead purification from yeast crude extract (Tris pH 7.5, 0.15 M KCl, 2 mM MgCl2, 10% glycerol, 4°C), Flag peptide elution, then AU-FDS of the GFP fusion with AU-A230 or AU-A260 (20°C, 15,000 rpm); material migrating at 77S (monosomal translating complex); cycloheximide added to cells; cells on glucose (elongation), or glucose depleted 10 min and glucose added back for 1 min or 0 min (initiation)
T1 sequence (looked up): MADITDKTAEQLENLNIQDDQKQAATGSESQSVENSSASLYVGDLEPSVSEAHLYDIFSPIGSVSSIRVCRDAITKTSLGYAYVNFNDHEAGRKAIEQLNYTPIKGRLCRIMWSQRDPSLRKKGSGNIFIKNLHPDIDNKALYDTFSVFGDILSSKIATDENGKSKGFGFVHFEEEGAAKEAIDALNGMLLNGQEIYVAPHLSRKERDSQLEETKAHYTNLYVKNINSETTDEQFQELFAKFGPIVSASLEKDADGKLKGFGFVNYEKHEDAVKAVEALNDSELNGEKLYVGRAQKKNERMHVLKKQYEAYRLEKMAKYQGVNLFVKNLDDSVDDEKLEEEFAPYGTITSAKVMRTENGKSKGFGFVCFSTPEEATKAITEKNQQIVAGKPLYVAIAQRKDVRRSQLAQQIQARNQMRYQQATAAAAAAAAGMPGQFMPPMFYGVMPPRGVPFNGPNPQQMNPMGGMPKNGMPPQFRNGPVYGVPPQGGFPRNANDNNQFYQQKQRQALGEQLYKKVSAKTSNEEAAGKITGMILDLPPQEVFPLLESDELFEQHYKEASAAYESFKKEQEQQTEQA

eIF4E-Flag [2] = target: T2, eIF4E-Flag (yeast, UniProt P07260 1-213); assay: as above
T2 sequence (looked up): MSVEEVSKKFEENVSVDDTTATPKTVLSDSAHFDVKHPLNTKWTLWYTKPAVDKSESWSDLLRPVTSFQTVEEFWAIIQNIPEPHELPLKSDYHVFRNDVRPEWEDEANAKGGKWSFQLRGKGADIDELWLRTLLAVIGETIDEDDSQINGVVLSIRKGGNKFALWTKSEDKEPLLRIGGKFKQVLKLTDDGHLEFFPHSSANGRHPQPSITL

Flag-PAB1 [3] = target: T1, Flag-PAB1; assay: co-IP + AUC; as a1, but material migrating from 90S to 200S (polysomal translating complexes); cells on glucose (elongation), or glucose depleted 10 min and glucose added back for 1 min (initiation)
eIF4E-Flag [4] = target: T2, eIF4E-Flag; assay: as above
Flag-SBP1 (yeast) = Flag-SBP1 (yeast) (UniProt P10080); assay: co-IP + AUC; one-step anti-Flag bead purification from yeast crude extract (Tris pH 7.5, 0.15 M KCl, 2 mM MgCl2, 10% glycerol, 4°C), Flag peptide elution, then AU-FDS of the GFP fusion with AU-A230 or AU-A260 (20°C, 15,000 rpm); material migrating at 77S (monosomal translating complex); cycloheximide added to cells; cells on glucose (elongation), or glucose depleted 10 min and glucose added back for 1 min or 0 min (initiation)
Flag-SBP1 (yeast), sequence (P10080 whole entry, the tested form may be a part): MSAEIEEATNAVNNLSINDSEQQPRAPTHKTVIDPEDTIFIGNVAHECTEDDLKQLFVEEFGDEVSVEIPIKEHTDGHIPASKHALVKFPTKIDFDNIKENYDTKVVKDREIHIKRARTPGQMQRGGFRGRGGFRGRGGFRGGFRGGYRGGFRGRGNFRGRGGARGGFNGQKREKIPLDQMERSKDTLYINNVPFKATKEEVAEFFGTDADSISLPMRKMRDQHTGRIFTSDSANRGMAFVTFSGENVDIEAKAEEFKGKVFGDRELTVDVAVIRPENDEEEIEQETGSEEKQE

Flag-PAB1 [5] = target: T1, Flag-PAB1; assay: co-IP + AUC; one-step anti-Flag bead purification from yeast crude extract (Tris pH 7.5, 0.15 M KCl, 2 mM MgCl2, 10% glycerol, 4°C), Flag peptide elution, then AU-FDS of the GFP fusion with AU-A230 or AU-A260 (20°C, 15,000 rpm); material migrating at 77S (monosomal translating complex); cycloheximide added to cells; cells on glucose (elongation), or glucose depleted 10 min and glucose added back for 1 min or 0 min …; conditions: partners not purified
eIF4E-Flag [6] = target: T2, eIF4E-Flag; assay: as above; conditions: partners not purified

In the case of “SBP1-GFP (from UniProt P10080 1-294) (natural protein)”, the relative level in the 77S monosomal translating complex, mRNA set at 100 (elongation) (Flag-PAB1 [1]) is reported as 2.1 per 100 mRNA, the relative level in the 77S monosomal translating complex, mRNA set at 100 (initiation) (Flag-PAB1 [1]) is reported as 3.3 per 100 mRNA and the relative level in the 77S monosomal translating complex, mRNA set at 100 (elongation) (eIF4E-Flag [2]) is reported as under 0.3 per 100 mRNA. The percent of the polyadenylated polysomes that contain SBP1 (Flag-PAB1 [3]) was 8.6%, the relative level in the polysomal translating complexes (90S to 200S), mRNA set at 100 (elongation) (Flag-PAB1 [3]) was 8.3 per 100 mRNA and the relative level in the polysomal translating complexes (90S to 200S), mRNA set at 100 (initiation) (Flag-PAB1 [3]) was 11 per 100 mRNA. It also gave a relative level in the polysomal translating complexes (90S to 200S), mRNA set at 100 (elongation) (eIF4E-Flag [4]) of under 0.3 per 100 mRNA.

For “eRF1-GFP (from UniProt P12385 1-437) (natural protein)”, the relative level in the 77S monosomal translating complex, mRNA set at 100 (elongation) (Flag-PAB1 [1]) was 0.97 per 100 mRNA, the relative level in the 77S monosomal translating complex, mRNA set at 100 (initiation) (Flag-PAB1 [1]) was 0.97 per 100 mRNA and the relative level in the 77S monosomal translating complex, mRNA set at 100 (elongation) (Flag-SBP1 (yeast)) was under 0.3 per 100 mRNA. It also gave a relative level in the 77S monosomal translating complex, mRNA set at 100 (elongation) (eIF4E-Flag [2]) of 2.8 per 100 mRNA, a relative level in the polysomal translating complexes (90S to 200S), mRNA set at 100 (elongation) (Flag-PAB1 [3]) of under 0.3 per 100 mRNA and a relative level in the polysomal translating complexes (90S to 200S), mRNA set at 100 (initiation) (Flag-PAB1 [3]) of under 0.3 per 100 mRNA. For the same molecule, the relative level in the polysomal translating complexes (90S to 200S), mRNA set at 100 (elongation) (eIF4E-Flag [4]) was under 0.3 per 100 mRNA.

B1: eIF4G2-GFP (natural protein, yeast, UniProt P39936 1-914, looked up)
chain: MTDQRGPPPPHPQQANGYKKFPPHDNQYSGANNSQPNNHYNENLYSAREPHNNKQYQSKNGKYGTNKYNNRNNSQGNAQYYNNRFNNGYRLNNNDYNPAMLPGMQWPANYYAPQMYYIPQQMVPVASPPYTHQPLNTNPEPPSTPKTTKIEITTKTGERLNLKKFHEEKKASKGEEKNDGVEQKSKSGTPFEKEATPVLPANEAVKDTLTETSNEKSTSEAENTKRLFLEQVRLRKAAMERKKNGLISETEKKQETSNHDNTDTTKPNSVIESEPIKEAPKPTGEANEVVIDGKSGASVKTPQHVTGSVTKSVTFNEPENESSSQDVDELVKDDDTTEISDTTGGKTVNKSDDETINSVITTEENTVKETEPSTSDIEMPTVSQLLETLGKAQPISDIYEFAYPENVERPDIKYKKPSVKYTYGPTFLLQFKDKLKFRPDPAWVEAVSSKIVIPPHIARNKPKDSGRFGGDFRSPSMRGMDHTSSSRVSSKRRSKRMGDDRRSNRGYTSRKDREKAAEKAEEQAPKEEIAPLVPSANRWIPKSRVKKTEKKLAPDGKTELFDKEEVERKMKSLLNKLTLEMFDSISSEILDIANQSKWEDDGETLKIVIEQIFHKACDEPHWSSMYAQLCGKVVKDLDPNIKDKENEGKNGPKLVLHYLVARCHEEFEKGWADKLPAGEDGNPLEPEMMSDEYYIAAAAKRRGLGLVRFIGYLYCLNLLTGKMMFECFRRLMKDLNNDPSEETLESVIELLNTVGEQFEHDKFVTPQATLEGSVLLDNLFMLLQHIIDGGTISNRIKFKLIDVKELREIKHWNSAKKDAGPKTIQQIHQEEEQLRQKKNSQRSNSRFNNHNQSNSNRYSSNRRNMQNTQRDSFASTKTGSFRNNQRNARKVEEVSQAPRANMFDALMNNDGDSD
notes: eIF4G2 of yeast, GFP fusion; The printed name puts GFP after the protein; also called TIF4632-GFP; source: yeast strain RP2384 (TIF4632-GFP::G418), in crude extract
With B1 the “relative level in the 77S monosomal translating complex, mRNA set at 100 (elongation)” value (Flag-PAB1 [5]) was 3.9 per 100 mRNA, the “relative level in the 77S monosomal translating complex, mRNA set at 100 (initiation)” value (Flag-PAB1 [5]) was 6.2 per 100 mRNA and the “relative level in the 77S monosomal translating complex, mRNA set at 100 (elongation)” value (eIF4E-Flag [6]) was 15 per 100 mRNA. For the same molecule, the “relative level in the 77S monosomal translating complex, mRNA set at 100 (initiation)” value (eIF4E-Flag [6]) was 15 per 100 mRNA, the relative level in the 77S monosomal translating complex, mRNA set at 100 (elongation) (Flag-SBP1 (yeast)) was under 0.3 per 100 mRNA and the “relative level in the polysomal translating complexes (90S to 200S), mRNA set at 100 (elongation)” value (Flag-PAB1 [3]; partners not purified) was 9.4 per 100 mRNA. The “relative level in the polysomal translating complexes (90S to 200S), mRNA set at 100 (initiation)” value (Flag-PAB1 [3]; partners not purified) was 13 per 100 mRNA, the “relative level in the polysomal translating complexes (90S to 200S), mRNA set at 100 (elongation)” value (eIF4E-Flag [4]; partners not purified) was 61 per 100 mRNA and the “relative level in the polysomal translating complexes (90S to 200S), mRNA set at 100 (initiation)” value (eIF4E-Flag [4]; partners not purified) was 56 per 100 mRNA.
